The source of these data is IntAct's records for PubMed 21516123.

The labels stand for the following.
B1: Peroxiredoxin-1 (Mus musculus), P35700 (parent)
chain: MSSGNAKIGYPAPNFKATAVMPDGQFKDISLSEYKGKYVVFFFYPLDFTFVCPTEIIAFSDRADEFKKLNCQVIGASVDSHFCHLAWINTPKKQGGLGPMNIPLISDPKRTIAQDYGVLKADEGISFRGLFIIDDKGILRQITINDLPVGRSVDEIIRLVQAFQFTDKHGEVCPAGWKPGSDTIKPDVNKSKEYFSKQK
partner: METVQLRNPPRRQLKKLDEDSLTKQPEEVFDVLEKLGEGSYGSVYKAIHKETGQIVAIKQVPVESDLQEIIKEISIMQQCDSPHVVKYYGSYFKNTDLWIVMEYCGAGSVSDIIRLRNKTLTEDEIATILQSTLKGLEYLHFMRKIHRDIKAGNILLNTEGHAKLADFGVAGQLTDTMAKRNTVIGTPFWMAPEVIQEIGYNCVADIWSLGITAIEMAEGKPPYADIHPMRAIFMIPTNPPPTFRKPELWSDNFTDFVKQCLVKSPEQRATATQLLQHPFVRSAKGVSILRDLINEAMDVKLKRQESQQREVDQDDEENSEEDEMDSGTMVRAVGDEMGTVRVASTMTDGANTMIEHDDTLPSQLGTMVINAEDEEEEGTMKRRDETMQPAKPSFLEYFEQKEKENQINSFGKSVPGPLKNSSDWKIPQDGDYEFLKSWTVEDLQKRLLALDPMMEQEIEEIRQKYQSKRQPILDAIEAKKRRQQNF

Variants of B1 are the subject of this experiment. The following applies: with stk4_human STK4, Q13043.
With C173S, the “effect of a mutation on the interaction” value was “increasing interaction”. As for C52S, the “effect of a mutation on the interaction” value is “disrupting interaction”. The value for C83S was “decreasing interaction”.
